What was measured:
[1] = target: recombinant soluble CMV envelope glycoprotein B (human cytomegalovirus) (UniProt P13201); experiment: SPR (Biacore); DC-SIGN CRD injected over immobilised CMV gB; Langmuir fit, average
[2] = target: recombinant soluble CMV envelope glycoprotein B (human cytomegalovirus) (UniProt P13201); experiment: SPR (Biacore); DC-SIGN CRD injected over immobilised CMV gB; from koff/kon

recombinant soluble CRD of DC-SIGN (amino acids 254-404), sequence (Q9NNX6 254-404 limits assumed): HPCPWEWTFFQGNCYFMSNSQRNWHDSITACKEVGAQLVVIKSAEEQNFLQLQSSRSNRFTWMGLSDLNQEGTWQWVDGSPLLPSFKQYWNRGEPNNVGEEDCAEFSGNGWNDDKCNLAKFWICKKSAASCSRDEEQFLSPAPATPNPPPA

recombinant soluble CRD of DC-SIGN (amino acids 254-404) (from UniProt Q9NNX6 254-404) (receptor)
koff [1]: 0.00126 s⁻¹
kon [1]: 4400 M⁻¹ s⁻¹
Kd [2]: 290 nM

Reference: patent publication US20040141968A1
